Reference: patent US20240132589A1 (ONCORESPONSE, published 2024)

Experiments:
[1] = molecular target: T1, Human LILRB1 on transiently transfected HEK293-6E cells (human, UniProt Q8NHL6 24-650); experiment: flow cytometry, transiently transfected HEK293-6E cells
T1 construct: whole, on cells; also called hLILRB1
Experimental: To determine that the anti-LILRB2 antibodies specifically bind to LILRB2 and not other LILRB and LILRA family members, a cross-reactivity assay was performed. Cross-reactivity of the LILRB2 antibodies to other LILRB proteins was assessed by antibody binding to transiently transfected HEK293-6E cells, measured by flow cytometry. Binding was evaluated to HEK293-6E cells transiently transfected with human LILRB-1, -2, -3, -4, and 5 plasmids (Origene, Nos. RC219949, RC217935, RC211228, RC220932, RC206516) or to cells transiently transfected with human LILRA-1, -2, -4, -5, and -6 plasmids (Origene, Nos. RC210808, RC205626, RC220452, RC212310 RC212965). […] Murine primary antibodies to LILRA and LILRB targets and corresponding isotype controls were used to confirm specific binding of all targets tested (R&D Systems) while an AF647 F(ab′)₂ fragment goat anti-mouse antibody (Jackson ImmunoResearch, No. 115-606-062) was used for the detection of bound positive control antibodies. No binding of B2A-IgG4 or B2A-IgG1 to LILRB-1, -3, -4, or -5 was observed, and no binding of either antibody to LILRA-1, -2, -4, -5, or -6 was observed, confirming specificity of these antibodies.

[2] = molecular target: T2, Human LILRB2 on stably transduced HEK293T cells (human, UniProt Q8N423 22-597); experiment: flow cytometry, HEK293T cells stably expressing human LILRB2
T2 construct: Lentiviral transduction (G&P Biosciences LTV2992); also called HEK293T-LILRB2; LILRB2-expressing HEK293T cells
Experimental: To confirm binding of LILRB2 antibodies, flow cytometry binding assays were performed using HEK293T cells stably expressing human LILRB2 (Example 3). […] The B2A-IgG1 and B2A-IgG4 chimeras bound the LILRB2-expressing HEK293T cells, with equivalent EC₅₀ values of 0.21 nM and 0.30 nM respectively.
Select humanized variant antibodies were purified and tested for their ability to bind human LILRB2 by ELISA, using the method described in Example 2, and binding to HEK293T cells expressing human LILRB2, using the method described in Example 4. Representative data are shown for IgG4 variants in Table 6.

[3] = molecular target: T3, Human LILRB2 on primary human myeloid cells (human, UniProt Q8N423 22-597); experiment: flow cytometry, AF647-conjugated antibody on human monocytes (15 subjects), average
T3 construct: whole, on cells; the cell type is named under assay; also called LILRB2 on monocytes, M0 and M2c macrophages, myeloid dendritic cells, neutrophils
Experimental: (§1) Anti-LILRB2 antibodies were evaluated for their ability to bind myeloid cell subsets expressing LILRB2, including monocytes, M0 macrophages, and M2c macrophages. M2c macrophages are used as a surrogate for tumor-associated macrophages, a suppressive macrophage commonly found in the tumor microenvironment. Frozen monocytes were removed from storage in vapor phase liquid nitrogen and thawed by gentle swirling in a water bath at 37° C., then resuspended in X-VIVO™ 15 media with 10% FBS. PBMC were placed in a 15 mL conical tube and centrifuged at 300×g for 5 minutes, then supernatant was removed. Cells were resuspended in Assay Medium (X-VIVO™ 15+10% FBS) at a cell density of 2.5×10⁵ cells/mL. Cells were plated into 96-well flat bottom plates at 100 μL/well (25K cells/well). M0 and M2c macrophages were generated as described in Example 10 and collected from flasks by incubation for 15 min at RT in Macrophage Detachment Solution DXF, then removed from the flask into X-VIVO™ 15 medium. Following centrifugation, the cells were resuspended in FACS Blocking Buffer D (FACS Buffer+10% FBS+0.5 mg/mL human IgG1) then incubated at 4° C. for 30 minutes. […]

[4] = molecular target: T3, Human LILRB2 on primary human myeloid …; experiment: flow cytometry, AF647-conjugated antibody on human M0 macrophages (7 subjects), average
Experimental: as §1

[5] = molecular target: T3, Human LILRB2 on primary human myeloid …; experiment: flow cytometry, AF647-conjugated antibody on human M2c macrophages (10 subjects), average
Experimental: as §1

T3 sequence (Q8N423 22-597): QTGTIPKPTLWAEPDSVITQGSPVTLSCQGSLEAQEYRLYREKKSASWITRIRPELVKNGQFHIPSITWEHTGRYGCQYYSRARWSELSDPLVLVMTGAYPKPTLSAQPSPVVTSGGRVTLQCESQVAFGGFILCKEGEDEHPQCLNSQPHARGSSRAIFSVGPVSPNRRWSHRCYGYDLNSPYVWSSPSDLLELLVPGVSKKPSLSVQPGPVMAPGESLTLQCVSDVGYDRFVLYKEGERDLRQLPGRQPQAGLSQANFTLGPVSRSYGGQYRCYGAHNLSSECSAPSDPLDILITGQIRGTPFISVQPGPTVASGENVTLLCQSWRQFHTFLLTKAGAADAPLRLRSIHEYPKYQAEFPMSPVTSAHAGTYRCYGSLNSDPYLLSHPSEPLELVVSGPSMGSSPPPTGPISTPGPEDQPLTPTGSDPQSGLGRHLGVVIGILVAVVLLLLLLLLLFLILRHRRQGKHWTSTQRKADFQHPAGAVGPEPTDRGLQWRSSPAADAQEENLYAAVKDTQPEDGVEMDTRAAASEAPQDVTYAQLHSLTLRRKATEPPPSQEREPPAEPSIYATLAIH
T2 sequence (Q8N423 other isoform, or with tags, fused parts or gaps limits assumed): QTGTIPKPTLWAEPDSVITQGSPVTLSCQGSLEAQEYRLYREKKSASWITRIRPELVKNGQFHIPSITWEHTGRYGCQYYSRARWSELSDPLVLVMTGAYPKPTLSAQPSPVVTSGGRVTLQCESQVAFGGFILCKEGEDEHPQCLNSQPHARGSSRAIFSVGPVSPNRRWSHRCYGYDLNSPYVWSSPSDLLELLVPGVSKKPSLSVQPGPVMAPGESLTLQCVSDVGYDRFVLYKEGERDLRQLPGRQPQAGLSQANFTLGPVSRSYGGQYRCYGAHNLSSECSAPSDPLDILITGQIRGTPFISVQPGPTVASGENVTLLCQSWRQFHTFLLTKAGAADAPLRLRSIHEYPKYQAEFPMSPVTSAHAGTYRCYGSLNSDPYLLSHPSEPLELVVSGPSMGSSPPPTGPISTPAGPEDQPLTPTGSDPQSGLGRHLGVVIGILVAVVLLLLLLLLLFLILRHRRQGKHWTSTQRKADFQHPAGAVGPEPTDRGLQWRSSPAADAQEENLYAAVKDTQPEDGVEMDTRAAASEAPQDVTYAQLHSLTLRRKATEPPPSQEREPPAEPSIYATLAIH
T1 sequence (Q8NHL6 24-650): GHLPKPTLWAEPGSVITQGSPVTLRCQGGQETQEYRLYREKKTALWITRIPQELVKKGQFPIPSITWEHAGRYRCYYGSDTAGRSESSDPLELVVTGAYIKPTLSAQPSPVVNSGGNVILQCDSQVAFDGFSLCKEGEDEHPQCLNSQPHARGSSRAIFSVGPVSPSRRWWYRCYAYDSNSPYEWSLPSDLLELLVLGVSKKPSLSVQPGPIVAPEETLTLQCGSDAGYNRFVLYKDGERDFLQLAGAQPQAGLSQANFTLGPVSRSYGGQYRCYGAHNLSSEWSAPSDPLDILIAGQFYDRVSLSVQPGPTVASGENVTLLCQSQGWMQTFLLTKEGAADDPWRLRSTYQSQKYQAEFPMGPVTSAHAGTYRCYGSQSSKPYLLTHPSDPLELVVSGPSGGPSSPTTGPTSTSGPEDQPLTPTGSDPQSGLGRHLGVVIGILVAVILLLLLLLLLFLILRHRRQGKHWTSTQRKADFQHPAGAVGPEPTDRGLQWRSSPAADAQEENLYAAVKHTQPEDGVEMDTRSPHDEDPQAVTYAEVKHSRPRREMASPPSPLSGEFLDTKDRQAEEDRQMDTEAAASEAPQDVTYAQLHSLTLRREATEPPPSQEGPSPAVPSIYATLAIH

B1: B2A-IgG1 (antibody)
heavy: not shown
light: DVVMTQTPSSVSAALGGTVTIKCQASQSIGSNLAWYQLKPGQRPKLLIYAAATLASGGSSRFKGSGSGTDFTLTISDLECADAATYYCQSYVSGSSDVAFGGGTEVVVKRTVAAPSVFIFPPSDEQLKSGTASVVCLLNNFYPREAKVQWKVDNALQSGNSQESVTEQDSKDSTYSLSSTLTLSKADYEKHKVYACEVTHQGLSSPVTKSFNRGEC
notes: Rabbit variable regions on human IgG1 / kappa constant regions; AF647-conjugated in some flow assays; also called B2A-IgG1 chimera; anti-LILRB2 B2A-IgG1
B1 showed an MFI [1] of 43 MFI.

B2: B2A-IgG4 (antibody)
heavy: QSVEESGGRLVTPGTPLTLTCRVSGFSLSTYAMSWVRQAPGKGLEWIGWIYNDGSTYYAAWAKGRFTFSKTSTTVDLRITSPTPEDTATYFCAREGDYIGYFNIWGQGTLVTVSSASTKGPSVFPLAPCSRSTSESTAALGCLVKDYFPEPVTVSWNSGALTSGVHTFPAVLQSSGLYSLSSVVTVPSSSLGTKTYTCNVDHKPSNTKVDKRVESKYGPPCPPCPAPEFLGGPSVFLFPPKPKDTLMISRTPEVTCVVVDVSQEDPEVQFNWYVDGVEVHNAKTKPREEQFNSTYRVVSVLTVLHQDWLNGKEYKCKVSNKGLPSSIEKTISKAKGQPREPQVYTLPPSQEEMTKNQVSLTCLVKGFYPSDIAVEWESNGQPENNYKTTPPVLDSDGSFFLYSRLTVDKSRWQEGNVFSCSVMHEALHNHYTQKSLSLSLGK
light: DVVMTQTPSSVSAALGGTVTIKCQASQSIGSNLAWYQLKPGQRPKLLIYAAATLASGGSSRFKGSGSGTDFTLTISDLECADAATYYCQSYVSGSSDVAFGGGTEVVVKRTVAAPSVFIFPPSDEQLKSGTASVVCLLNNFYPREAKVQWKVDNALQSGNSQESVTEQDSKDSTYSLSSTLTLSKADYEKHKVYACEVTHQGLSSPVTKSFNRGEC
notes: Rabbit variable regions on human IgG4 / kappa constant regions; also called B2A-IgG4 chimera; Parent B2A-IgG4
In the case of B2, the “BMAX [gMFI]” value [2] is reported as 12100 gMFI and the EC50 [2] is reported as 0.00034 µg/mL.

B3: B2H1-55 (antibody, V domains shown)
VH: EVQLLESGGGLVQPGTSLTLSCAASGFSLSTYAMSWVRQAPGKGLEWIGWIYNDGSTYYAAWAKGRFTISKDTSKTTLYLQITSLRAEDTATYFCAREGDYIGYFNIWGQGTLVTVSS
VL: DVVMTQTPSSVSAALGGTVTIKCQASQSIGSNLAWYQLKPGQRPKLLIYAAATLASGGSSRFKGSGSGTDFTLTISSLEPADAATYYCQSYVSGSSDVAFGGGTEVVVK
notes: Humanized variant, human IgG1 / kappa; also called humanized variant B2H1-55; humanized LILRB2 antibody B2H1-55
For B3, the EC50 [3] was 0.0356 µg/mL, the EC50 [4] was 0.0748 µg/mL and the EC50 [5] was 0.0243 µg/mL.
